Test results from patent US6866851.
Each block holds one substance with its values, some of them ahead of it.

Experiments:
Test in all cases: cell-based or functional assay
[1] = biological target: GFRα1-RET receptor complex (cells transfected with GFRα1 and expressing RET)
[2] = biological target: GFRα2-RET receptor complex (cells transfected with GFRα2 and expressing RET)
[3] = biological target: GFRα3-RET receptor complex (cells transfected with GFRα3 and expressing RET)

- GFRα1-RET reporter activation relative to GDNF (% of full-length GDNF) [1]: < 60
Substance: GPG-F2c (GDNF homologue-scanning mutant, region F2c replaced by persephin sequence) (ligand)

- GFRα2-RET reporter activation (FIG. 4, percentage of reporter activation by GDNF) [2]: 27%
- GFRα1-RET reporter activation (FIG. 4, percentage of reporter activation by GDNF) [1]: 80%
Substance: GPG-Ha (GDNF homologue-scanning mutant, region Ha replaced by persephin sequence) (ligand)

- GFRα3-RET reporter activation relative to artemin (% of full length artemin) [3]: 70 to 80
Substance: PAP-Ha/F2ac (persephin with regions Ha, F2a and F2c from artemin) (ligand)

- GFRα2-RET reporter activation relative to GDNF [2]: < 30 % of GDNF
Substance: PNP-F2ac (His-Flag-PNP-F2ac, from mouse sequences) (ligand)

- GFRα2-RET reporter activation relative to GDNF [2]: 70 to 80 % of GDNF
Substance: PNP-Ha/F2ac (persephin with regions Ha, F2a and F2c from neurturin) (ligand)
